In this assay the target is Human CD137 ECD (human). The assay is described as follows: single mutant vs template dBBDu183H.

Changes are numbered by the printed parent chain. Names and notes keep the numbering of the source.

Sequence of Human CD137 ECD (human) (chain, as listed by the source limits assumed): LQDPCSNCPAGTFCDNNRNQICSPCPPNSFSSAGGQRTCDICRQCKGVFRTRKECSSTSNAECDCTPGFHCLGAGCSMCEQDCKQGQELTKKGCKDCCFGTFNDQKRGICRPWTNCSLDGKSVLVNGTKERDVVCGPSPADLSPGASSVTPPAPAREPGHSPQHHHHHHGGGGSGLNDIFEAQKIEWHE

B1: H183/L072 VH F29S (antibody, name in Kabat numbering, V domains shown)
VH: QVQLVESGGGLVQPGRSLRLSCAASGFTSSNAWMHWVRQAPGKGLEWVAQIKDKGNAYAAYYAPSVKGRFTISRDDSKNSIYLQMNSLKTEDTAVYYCHYVHYASASTVLPAFGVDAWGQGTTVTVSS
VL: DIVMTQSPLSLPVTPGEPASISCQASQELVHMNRNTYLHWYQQKPGQAPRLLIYKVSNRFPGVPDRFSGSGSGTDFTLKISRVEAEDVGVYYCAQGTSVPFTFGQGTKLEIK
As for B1, the fold change of affinity is 0 fold.

B2: H183/L072 VH N53E (antibody, name in Kabat numbering, V domains shown)
VH: B1 VH with S29F, N56E
VL: B1 VL
As for B2, the fold change of affinity worked out at 0 fold.

B3: H183/L072 VH M34T (antibody, name in Kabat numbering, V domains shown)
VH: B1 VH with S29F, M34T
VL: B1 VL
On to B3, for which the fold change of affinity was 0 fold.

B4: H183/L072 VH N31E (antibody, name in Kabat numbering, V domains shown)
VH: B1 VH with S29F, N31E
VL: B1 VL
As to B4, the fold change of affinity stood at 0 fold.

B5: H183/L072 VH Y55S (antibody, name in Kabat numbering, V domains shown)
VH: B1 VH with S29F, Y58S
VL: B1 VL
As to B5, the fold change of affinity stood at 0 fold.

B6: H183/L072 VH W33D (antibody, name in Kabat numbering, V domains shown)
VH: B1 VH with S29F, W33D
VL: B1 VL
On to B6, for which the fold change of affinity turned out to be 0 fold.

B7: H183/L072 VH N53S (antibody, name in Kabat numbering, V domains shown)
VH: B1 VH with S29F, N56S
VL: B1 VL
For the molecule B7, the fold change of affinity worked out at 0 fold.

B8: H183/L072 VH A32D (antibody, name in Kabat numbering, V domains shown)
VH: B1 VH with S29F, A32D
VL: B1 VL
As for B8, the fold change of affinity was found to be 0 fold.

B9: H183/L072 VH N53T (antibody, name in Kabat numbering, V domains shown)
VH: B1 VH with S29F, N56T
VL: B1 VL
Regarding B9, the fold change of affinity worked out at 0 fold.

B10: H183/L072 VH F29D (antibody, name in Kabat numbering, V domains shown)
VH: B1 VH with S29D
VL: B1 VL
For B10, the fold change of affinity is 0 fold.

B11: H183/L072 VH H35S (antibody, name in Kabat numbering, V domains shown)
VH: B1 VH with S29F, H35S
VL: B1 VL
In the case of B11, the fold change of affinity was found to be 0 fold.

B12: H183/L072 VH N31D (antibody, name in Kabat numbering, V domains shown)
VH: B1 VH with S29F, N31D
VL: B1 VL
Regarding B12, the fold change of affinity was 0 fold.

B13: H183/L072 VH K52bD (antibody, name in Kabat numbering, V domains shown)
VH: B1 VH with S29F, K54D
VL: B1 VL
As to B13, the fold change of affinity turned out to be 0 fold.

B14: H183/L072 VH D52aE (antibody, name in Kabat numbering, V domains shown)
VH: B1 VH with S29F, D53E
VL: B1 VL
With B14, the fold change of affinity turned out to be 0 fold.

B15: H183/L072 VH K52S (antibody, name in Kabat numbering, V domains shown)
VH: B1 VH with S29F, K52S
VL: B1 VL
B15: the fold change of affinity was 0 fold.

B16: H183/L072 VH W33H (antibody, name in Kabat numbering, V domains shown)
VH: B1 VH with S29F, W33H
VL: B1 VL
As for B16, the fold change of affinity turned out to be 0 fold.

B17: H183/L072 VH W33E (antibody, name in Kabat numbering, V domains shown)
VH: B1 VH with S29F, W33E
VL: B1 VL
On to B17, for which the fold change of affinity worked out at 0 fold.

B18: H183/L072 VH M34D (antibody, name in Kabat numbering, V domains shown)
VH: B1 VH with S29F, M34D
VL: B1 VL
Take B18: the fold change of affinity came out at 0 fold.

B19: H183/L072 VH N53H (antibody, name in Kabat numbering, V domains shown)
VH: B1 VH with S29F, N56H
VL: B1 VL
Turning to B19, the fold change of affinity was determined as 0 fold.

B20: H183/L072 VH D52aH (antibody, name in Kabat numbering, V domains shown)
VH: B1 VH with S29F, D53H
VL: B1 VL
As to B20, the fold change of affinity is 0 fold.

B21: H183/L072 VH H35D (antibody, name in Kabat numbering, V domains shown)
VH: B1 VH with S29F, H35D
VL: B1 VL
As to B21, the fold change of affinity was 0 fold.

B22: H183/L072 VH K52D (antibody, name in Kabat numbering, V domains shown)
VH: B1 VH with S29F, K52D
VL: B1 VL
Consider B22, for which the fold change of affinity is 0 fold.

B23: H183/L072 VH I51D (antibody, name in Kabat numbering, V domains shown)
VH: B1 VH with S29F, I51D
VL: B1 VL
Regarding B23, the fold change of affinity worked out at 0 fold.

B24: H183/L072 VH K52T (antibody, name in Kabat numbering, V domains shown)
VH: B1 VH with S29F, K52T
VL: B1 VL
In the case of B24, the fold change of affinity is 0 fold.

B25: H183/L072 VH F29H (antibody, name in Kabat numbering, V domains shown)
VH: B1 VH with S29H
VL: B1 VL
For B25, the fold change of affinity came out at 0 fold.

B26: H183/L072 VH W33K (antibody, name in Kabat numbering, V domains shown)
VH: B1 VH with S29F, W33K
VL: B1 VL
With B26, the fold change of affinity worked out at 0 fold.

B27: H183/L072 VH G26K (antibody, name in Kabat numbering, V domains shown)
VH: B1 VH with G26K, S29F
VL: B1 VL
In the case of B27, the fold change of affinity came out at 0 fold.

B28: H183/L072 VH Y55T (antibody, name in Kabat numbering, V domains shown)
VH: B1 VH with S29F, Y58T
VL: B1 VL
As to B28, the fold change of affinity is 0 fold.

B29: H183/L072 VH W33S (antibody, name in Kabat numbering, V domains shown)
VH: B1 VH with S29F, W33S
VL: B1 VL
Consider B29, for which the fold change of affinity stood at 0 fold.

B30: H183/L072 VH K52E (antibody, name in Kabat numbering, V domains shown)
VH: B1 VH with S29F, K52E
VL: B1 VL
B30: the fold change of affinity came out at 0 fold.

B31: H183/L072 VH F29K (antibody, name in Kabat numbering, V domains shown)
VH: B1 VH with S29K
VL: B1 VL
For B31, the fold change of affinity came to 0 fold.

B32: H183/L072 VH K52H (antibody, name in Kabat numbering, V domains shown)
VH: B1 VH with S29F, K52H
VL: B1 VL
For B32, the fold change of affinity was 0 fold.

B33: H183/L072 VH W33T (antibody, name in Kabat numbering, V domains shown)
VH: B1 VH with S29F, W33T
VL: B1 VL
Take B33: the fold change of affinity turned out to be 0 fold.

B34: H183/L072 VH T28D (antibody, name in Kabat numbering, V domains shown)
VH: B1 VH with T28D, S29F
VL: B1 VL
As to B34, the fold change of affinity was 0 fold.

B35: H183/L072 VH N31K (antibody, name in Kabat numbering, V domains shown)
VH: B1 VH with S29F, N31K
VL: B1 VL
For the molecule B35, the fold change of affinity came out at 0 fold.

B36: H183/L072 VH M34E (antibody, name in Kabat numbering, V domains shown)
VH: B1 VH with S29F, M34E
VL: B1 VL
For the molecule B36, the fold change of affinity was 0 fold.

B37: H183/L072 VH H35E (antibody, name in Kabat numbering, V domains shown)
VH: B1 VH with S29F, H35E
VL: B1 VL
As to B37, the fold change of affinity was determined as 0 fold.

B38: H183/L072 VH I51H (antibody, name in Kabat numbering, V domains shown)
VH: B1 VH with S29F, I51H
VL: B1 VL
B38: the fold change of affinity is 0 fold.

B39: H183/L072 VH D52aS (antibody, name in Kabat numbering, V domains shown)
VH: B1 VH with S29F, D53S
VL: B1 VL
In the case of B39, the fold change of affinity came out at 0 fold.

B40: H183/L072 VH N53D (antibody, name in Kabat numbering, V domains shown)
VH: B1 VH with S29F, N56D
VL: B1 VL
Turning to B40, the fold change of affinity was determined as 0 fold.

B41: H183/L072 VH M34S (antibody, name in Kabat numbering, V domains shown)
VH: B1 VH with S29F, M34S
VL: B1 VL
For the molecule B41, the fold change of affinity is 0 fold.

B42: H183/L072 VH F29E (antibody, name in Kabat numbering, V domains shown)
VH: B1 VH with S29E
VL: B1 VL
For the molecule B42, the fold change of affinity was determined as 0 fold.

B43: H183/L072 VH D52aT (antibody, name in Kabat numbering, V domains shown)
VH: B1 VH with S29F, D53T
VL: B1 VL
On to B43, for which the fold change of affinity was determined as 0 fold.

B44: H183/L072 VH I51E (antibody, name in Kabat numbering, V domains shown)
VH: B1 VH with S29F, I51E
VL: B1 VL
In the case of B44, the fold change of affinity amounted to 0 fold.

The record behind these values is patent US20210388087A1.
